Experimental data reported in patent publication US20050176630A1.
No end group written: not given here.

Tests used:
[1] = target: MC3-R in mouse arcuate nucleus slices (mouse) (UniProt P33033); assay: cell-based or functional assay
[2] = target: µ opioid receptor on POMC neurons in mouse hypothalamic slices (mouse) (UniProt P42866); assay: cell-based or functional assay
[3] = target: T1, NPY Y2 receptor (expressed on a cell line); assay: receptor-binding study on a cell line expressing the NPY Y2 receptor; labelled ligand not named
T1 sequence (P49146 whole entry, species assumed, looked up): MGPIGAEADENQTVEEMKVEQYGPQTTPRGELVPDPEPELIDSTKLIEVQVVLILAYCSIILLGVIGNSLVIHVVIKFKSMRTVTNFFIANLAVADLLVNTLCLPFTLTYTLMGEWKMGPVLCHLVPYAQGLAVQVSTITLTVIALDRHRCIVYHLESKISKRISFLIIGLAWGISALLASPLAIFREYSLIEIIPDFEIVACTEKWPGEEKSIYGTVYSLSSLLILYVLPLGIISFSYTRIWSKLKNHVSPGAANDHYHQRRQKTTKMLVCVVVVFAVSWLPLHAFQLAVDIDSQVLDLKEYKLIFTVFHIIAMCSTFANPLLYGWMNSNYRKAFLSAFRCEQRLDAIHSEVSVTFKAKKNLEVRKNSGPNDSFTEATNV

µ opioid receptor on POMC neurons in mouse hypothalamic slices (mouse), sequence (P42866 whole entry): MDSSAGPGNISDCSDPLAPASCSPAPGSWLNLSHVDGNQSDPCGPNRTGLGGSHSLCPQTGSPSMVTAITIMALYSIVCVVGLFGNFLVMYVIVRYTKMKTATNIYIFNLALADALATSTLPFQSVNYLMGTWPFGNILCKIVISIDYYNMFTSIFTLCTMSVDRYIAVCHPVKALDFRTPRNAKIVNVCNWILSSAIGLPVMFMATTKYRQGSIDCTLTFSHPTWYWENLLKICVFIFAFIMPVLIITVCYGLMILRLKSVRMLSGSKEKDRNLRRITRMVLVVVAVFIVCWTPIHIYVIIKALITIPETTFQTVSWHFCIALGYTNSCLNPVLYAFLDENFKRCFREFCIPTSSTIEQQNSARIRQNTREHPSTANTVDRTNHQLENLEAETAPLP
MC3-R in mouse arcuate nucleus slices (mouse), sequence (P33033 whole entry): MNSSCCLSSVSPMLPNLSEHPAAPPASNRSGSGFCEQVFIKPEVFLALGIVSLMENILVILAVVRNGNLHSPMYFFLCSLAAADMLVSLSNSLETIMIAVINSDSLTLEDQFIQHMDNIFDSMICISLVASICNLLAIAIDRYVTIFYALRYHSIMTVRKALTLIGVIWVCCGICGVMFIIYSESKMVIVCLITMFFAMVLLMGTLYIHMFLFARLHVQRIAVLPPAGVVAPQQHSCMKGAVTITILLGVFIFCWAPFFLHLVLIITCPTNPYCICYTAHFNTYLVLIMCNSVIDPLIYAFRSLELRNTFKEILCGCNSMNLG

With D-Trp^8-γMSH (peptide) the frequency of GABAergic IPSCs recorded from POMC neurons (D-Trp^8-γMSH 7 nM) [1] was 280%.

Work on “met-enkephalin (from UniProt P01210 100-104) (peptide)” yielded a hyperpolarization of the membrane potential of POMC cells (Met-Enk 30 µM) [2] of 10 to 20 mV.

Ac-LRHYLNLLTRQRY (ends and bridges not checked) [N-acetyl (Leu^28, Leu^31) NPY (24-36)] gave an IC50 [3] of 1.3 nM.
